# Measurements: patent publication US5210024A, “Isolation of strains of Saccharomyces cerevisiae having altered α-acetyltransferase activity” (priority 1991, dated 1993)
# Columns and labels:
# [1] = target: T1, M-N^α -AT (methionine N^α -acetyltransferase) (Saccharomyces cerevisiae, UniProt Q06504); assay: N^α-acetylation of synthetic peptides by methionine N^α-acetyltransferase; type: biochemical; set-up: concentration or dose not given beside the values
# T1 construct: endogenous in cells; host or cells: Saccharomyces cerevisiae aaa1 (AAA1-null) mutant
# T1 sequence (Q06504 1-195): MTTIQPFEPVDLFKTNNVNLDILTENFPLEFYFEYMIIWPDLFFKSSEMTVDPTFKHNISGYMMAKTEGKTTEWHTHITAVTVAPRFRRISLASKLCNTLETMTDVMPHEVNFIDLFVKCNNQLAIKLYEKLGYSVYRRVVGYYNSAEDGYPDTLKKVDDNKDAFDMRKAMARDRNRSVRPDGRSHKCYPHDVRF
# T1 sequence (Q12387 2-796 partner limits assumed): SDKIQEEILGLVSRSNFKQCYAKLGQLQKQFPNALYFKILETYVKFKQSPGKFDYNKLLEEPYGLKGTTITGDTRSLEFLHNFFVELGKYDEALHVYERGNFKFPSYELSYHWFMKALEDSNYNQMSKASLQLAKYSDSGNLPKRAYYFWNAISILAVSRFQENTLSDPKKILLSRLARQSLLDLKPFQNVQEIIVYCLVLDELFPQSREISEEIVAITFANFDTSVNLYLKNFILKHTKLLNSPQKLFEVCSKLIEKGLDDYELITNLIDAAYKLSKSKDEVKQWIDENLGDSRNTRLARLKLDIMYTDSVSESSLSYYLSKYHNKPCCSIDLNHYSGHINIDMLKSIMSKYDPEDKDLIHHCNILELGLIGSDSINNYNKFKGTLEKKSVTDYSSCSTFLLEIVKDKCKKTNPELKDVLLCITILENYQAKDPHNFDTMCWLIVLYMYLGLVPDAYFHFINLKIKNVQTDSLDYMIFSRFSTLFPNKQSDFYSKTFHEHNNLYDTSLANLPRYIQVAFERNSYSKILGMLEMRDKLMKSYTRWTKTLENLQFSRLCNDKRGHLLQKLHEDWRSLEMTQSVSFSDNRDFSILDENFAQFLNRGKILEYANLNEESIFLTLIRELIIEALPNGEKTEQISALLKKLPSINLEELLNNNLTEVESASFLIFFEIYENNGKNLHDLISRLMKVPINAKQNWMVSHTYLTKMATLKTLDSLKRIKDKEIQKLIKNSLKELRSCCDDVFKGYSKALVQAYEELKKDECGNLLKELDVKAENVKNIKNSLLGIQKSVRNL
# Experimental: (§1) Aliquots of the lysate were added to 1.5 ml Eppendorf tubes containing a reaction mixture of 50 mM HEPES, pH 7.4, 150 mM KCl, 1 mM DTT, 25 μM[^3 H]acetyl coenzyme A (0.5 μCi) and 50 μM ACTH (1-24) with an adjusted final volume of 100 μl. The assay mixture was incubated at 30 C for 30 min. The reaction was stopped by adding 0.5 M acetic acid and chilled in an ice bath. […] The radioactivity in the control represented acetylation of endogenous compounds is subtracted from each sample determination. One unit of activity is defined as 1 pmol of acetyl residues incorporated into ACTH (1-24) under standard assay conditions.
# (§2) This second N^α -acetyltransferase is a methionine N^α -acetyltransferase activity, and is designated as "M-N^α -AT." This second N^α -acetyltransferase is the subject of U.S. patent application of John A. Smith and Fang-Jen S. Lee, filed Oct. […] In order to compare the relative specificity and activity of the AAA1 N^α -acetyltransferase ("N^α -AT") of the present invention with the methionine N^α -acetyltransferase activity (M-N^α -AT) of U.S. patent application of John A. Smith and Fang-Jen S. Lee, filed Oct. […] These peptides were assessed for their ability to serve as substrates for the two enzymes. In Table 2, the effect of the amino terminal amino acid on activity is investigated; in Table 3, the effect of the penultimate amino terminal amino acid on activity is investigated.
# [2] = target: T2, N^α -AT (AAA1 N^α -acetyltransferase) (Saccharomyces cerevisiae, UniProt P07347+P12945); assay: N^α-acetylation of synthetic peptides by AAA1 N^α-acetyltransferase ([3H]acetyl coenzyme A incorporation); type: biochemical; set-up: concentration or dose not given beside the values
# T2 construct: isolates N^α -acetyltransferase by treating yeast cells with lyticase; endogenous in cells; host or cells: Saccharomyces cerevisiae cells (native enzyme)
# T2 sequence (P12945 2-854): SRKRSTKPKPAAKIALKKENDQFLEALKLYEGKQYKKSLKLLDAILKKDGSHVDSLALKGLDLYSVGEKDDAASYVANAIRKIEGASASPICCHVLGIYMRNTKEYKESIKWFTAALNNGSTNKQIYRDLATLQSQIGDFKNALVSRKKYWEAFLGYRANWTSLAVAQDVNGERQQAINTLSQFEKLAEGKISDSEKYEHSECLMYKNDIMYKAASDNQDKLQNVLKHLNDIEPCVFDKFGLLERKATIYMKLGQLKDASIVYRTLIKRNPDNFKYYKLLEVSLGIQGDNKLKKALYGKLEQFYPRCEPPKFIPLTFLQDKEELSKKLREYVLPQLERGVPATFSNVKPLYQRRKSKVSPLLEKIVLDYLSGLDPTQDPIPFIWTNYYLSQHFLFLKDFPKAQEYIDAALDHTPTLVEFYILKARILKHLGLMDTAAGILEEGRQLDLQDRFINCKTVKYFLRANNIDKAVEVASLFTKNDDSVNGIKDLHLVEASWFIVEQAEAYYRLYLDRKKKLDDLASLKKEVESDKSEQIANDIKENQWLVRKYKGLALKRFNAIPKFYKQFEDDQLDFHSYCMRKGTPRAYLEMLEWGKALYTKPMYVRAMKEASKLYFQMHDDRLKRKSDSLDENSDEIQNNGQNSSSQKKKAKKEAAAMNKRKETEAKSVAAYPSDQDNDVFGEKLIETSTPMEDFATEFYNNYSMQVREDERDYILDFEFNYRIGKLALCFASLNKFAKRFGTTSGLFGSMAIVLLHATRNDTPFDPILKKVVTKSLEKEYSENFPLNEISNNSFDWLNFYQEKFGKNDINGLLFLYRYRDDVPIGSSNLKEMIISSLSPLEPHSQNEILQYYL
# T2 sequence (P07347 1-238): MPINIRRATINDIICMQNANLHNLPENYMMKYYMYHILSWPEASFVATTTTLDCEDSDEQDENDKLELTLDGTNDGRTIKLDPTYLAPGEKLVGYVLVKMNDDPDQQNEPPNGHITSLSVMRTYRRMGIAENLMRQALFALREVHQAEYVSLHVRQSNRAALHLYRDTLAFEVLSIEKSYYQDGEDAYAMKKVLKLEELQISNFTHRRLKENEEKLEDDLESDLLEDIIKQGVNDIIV
# Experimental: as §1, §2
# [3] = target: T2, N^α -AT (AAA1 N^α -acetyltransferase); conditions: purified enzyme; Lee et al., J. Biol. Chem. 263:14948-14955 (1988); cited from earlier work
# [4] = Table 2: relative activity for N^α-acetylation of synthetic peptide substrate, influence of the amino terminal residue
# [5] = Table 3: relative activity for N^α-acetylation of synthetic peptide substrate, influence of the penultimate amino terminal residue
Substance,"Activity (%) (mean activity ± S.D.) M-N^α -AT [1, 4]","Activity (%) (mean activity ± S.D.) M-N^α -AT [1, 5]","Activity (%) (mean activity ± S.D.) N^α -AT [2, 4]","Activity (%) (mean activity ± S.D.) N^α -AT [2, 5]",transfer of an acetyl group to synthetic peptide substrates by purified yeast N^α-acetyltransferase [3]
"SYSMEHFRWGKPVGKKRRPVKVYP [ACTH (Human), reference compound]",0%,0%,100 ± 5%,100 ± 5%,effectively transfer an acetyl group
"SIPETQKGVIFYESHGKLEYKDIP (SIPETQKGVIFYESHGKLEYKDIP) [ALCOHOL DEHYDROGENASE I (1-24) (Yeast), synthetic peptide substrate, yeast alcohol dehydrogenase I residues 1-24, reference compound]",0%,0%,102 ± 5%,102 ± 5%,effectively transfer an acetyl group
"human superoxide dismutase (1-24): synthetic peptide substrate, residues 1-24 of human superoxide dismutase (ATKAVCVLKGDGPVQGIINFEQKE; UniProt P00441 2-25, looked up, fragment)",,,,,effectively transfer an acetyl group
LIPETQKGVIFYESHGKLEYKDIP (LIPETQKGVIFYESHGKLEYKDIP),0%,,0%,,
PIPETQKGVIFYESHGKLEYKDIP (PIPETQKGVIFYESHGKLEYKDIP),0%,,70 ± 4%,,
EIPETQKGVIFYESHGKLEYKDIP (EIPETQKGVIFYESHGKLEYKDIP),0%,,0%,,
SWPETQKGVIFYESHGKLEYKDIP (SWPETQKGVIFYESHGKLEYKDIP),,0%,,91 ± 5%,
SSPETQKGVIFYESHGKLEYKDIP (SSPETQKGVIFYESHGKLEYKDIP),,0%,,140 ± 6%,
SPPETQKGVIFYESHGKLEYKDIP (SPPETQKGVIFYESHGKLEYKDIP),,0%,,0%,
SMPETQKGVIFYESHGKLEYKDIP (SMPETQKGVIFYESHGKLEYKDIP),,0%,,140 ± 7%,
SGPETQKGVIFYESHGKLEYKDIP (SGPETQKGVIFYESHGKLEYKDIP),,0%,,84 ± 5%,
SQPETQKGVIFYESHGKLEYKDIP (SQPETQKGVIFYESHGKLEYKDIP),,0%,,134 ± 7%,
RIPETQKGVIFYESHGKLEYKDIP (RIPETQKGVIFYESHGKLEYKDIP),0%,,0%,,
